According to patent publication US20020086390A1:

Target: PAK I of frog (Lepidobatrachus laevis) oocytes, zygotes and embryos (frog (Lepidobatrachus laevis))
Test: cell-based or functional assay

A degree of activation of inactive PAK I in DEAE-cellulose fractions (H4 phosphorylation) of 6 to 7 fold was found for “GST-Cdc42Hs preloaded with GTPγS (from UniProt P60953 1-191)” in this work.
